Source: the DeepSol protein solubility set

Assay: soluble on expression in E. coli; label from the status in PepcDB or PDB records

In the case of “MKYMITSKGDEKSDLLRLNMIAGFGEYDMEYDDVEPEIVISIGGDGTFLSAFHQYEERLDEIAFIGIHTGHLGFYADWRPAEADKLVKLLAKGEYQKVSYPLLKTTVKYGIGKKEATYLALNESTVKSSGGPFVVDVVINDIHFERFRGDGLCMSTPSGTTAYNKSLGGALMHPSIEAMQLTEMASINNRVYRTIGSPLVFPKHHVVSLQPVNDKDFQISVDHLSILHRDVQEIRYEVSAKKIHFARFRSFPFWRRVHDSFIEDLEHHHHHH”, the “soluble on expression in E. coli” value was “soluble”.

With “MATALYTANDFILISLPQNAQPVTAPGSKTDSWFNETLIGGRAFVSDFKIPEFKIGSLDTLIVESEELSKVDNQIGASIGKIIEILQGLNETSTNAYRTLPINNMPVPEYLENFQWQTRKFKLDKSIKDLITLISNESSQLDADVRATYANYNSAKTNLAAAERKKTGDLSVRSLHDIVKPEDFVLNSEHLTTVLVAVPKSLKSDFEKSYETLSKNVVPASASVIAEDAEYVLFNVHLFKKNVQEFTTAAREKKFIPREFNYSEELIDQLKKEHDSAASLEQSLRVQLVRLAKTAYVDVFINWFHIKALRVYVESVLRYGLPPHFNIKIIAVPPKNLSKCKSELIDAFGFLGGNAFMKDKKGKINKQDTSLHQYASLVDTEYEPFVMYIINL” the “soluble on expression in E. coli” value was “soluble”.

In the case of “MFILSAQRLSGTQVFRRLAEGCTGYSVSSGCRQRRRCCPGAPQRPRRVRVNALQLQSGLADPLDPKSEAEVREHLRSNSPAERALGINYARYLDESTRYDILLEMMEDTDPQVRYAAVTQLATVGSHDRQRTLKAVRKILWNTEEDASVRAGAADVLGGLRFHEAFPDLEKLFHESKDWVVRFSIIAALGEMGVREAFPILVEALHANKEPLVQLAAIGALGELGDERARVYLEPLVNSSDASIVERARFALDALDARGSERT”, the “soluble on expression in E. coli” value was “not soluble”.

For “MALSILFLSIASLTLSSSLIIDHYFHLSFLRNPLKSQSGGGKMKPKVFITREIPEVGIKMLEDEFEVEVWGDEKEIPREILLKKVKEVDALVTMLSERIDKEVFENAPKLRIVANYAVGYDNIDIEEATKRGIYVTNTPDVLTDATADLAFALLLATARHVVKGDRFVRSGEWKKRGVAWHPKWFLGYDVYGKTIGIIGLGRIGQAIAKRAKGFNMRILYYSRTRKEEVERELNAEFKPLEDLLRESDFVVLAVPLTRETYHLINEERLKLMKKTAILINIARGKVVDTNALVKALKEGWIAGAGLDVFEEEPYYNEELFKLDNVVLTPHIGSASFGAREGMAELVAKNLIAFKRGEIPPTLVNREVIKIRKPGFE”, the “soluble on expression in E. coli” value was “soluble”.

In the case of “MGSDKIHHHHHHGPASGRVEMKGESDSLSVRHGQENALSVSDEYPEGYVPVPGIRYQANYLTGNPERLDVKAALRNVRPLKLSQLGSQLDFMVFKDVKGGIFRLIPIEEGCLGVGIGGIWLLDGNLKMIRMLFRNDVDITEENGFTNFQTKRYINPDYYEKSSRTLIGVLYDQRDKKNPKSFVRLSLKDLLSASRPLTPDDIHKRAGISGNYLLGMADGYATWTRFTNDVYTFNLRGDTLCHFTIGEKVNYPPRGNGSYRSGEQATVYHYKGCPMIIMPYGNTVYRMKDASTLEPVYELDFGTLHRATGEEVVGGADVDNAYFLSDWVETDSYVFMHVEKGYDCPYARDKKQVTLYSLIYDKRSKAFFSLPQAEKTVHPCPEPDLPDGIPFWPRKGFSEEQLATFTTGWKLSKSSPEVFKRIPALQGTEKETTSLIITLK”, the “soluble on expression in E. coli” value was “not soluble”.

In the case of “QKKTVQVYRIIAKNTIEERVCQVQAEKQELVSKTLVEDVNFFESLTNEELLRLFE”, the “soluble on expression in E. coli” value was “not soluble”.

For “SLDIRALGYFVAQTDAPQEWQHYAEQVLGMMTAPTDDGGFYIKMDERPYRMLVIPGADKRYFASGWELTGAKAYNNAKQTLLDKGIAFEEANKALCEQRRVQNILIVNDPAGNRHELYWGHVSDCQPFTSPQGVPAFITGDMGLGHTVLPAPNFDETFAFLTDVLGFELSDLFNFKPAPEADPIRIYFMHCGNARHHSLAICEFPVPSGCVHAMVEVENMTEVGRAHDRQQQHQVQLSATLGQHLNDKMTSFYMKTPSGFDLEYGFGGLQVENWEEHCAFEFSRVSLWGHDFSVGEKEG”, the “soluble on expression in E. coli” value was “not soluble”.

For “LRIYSADNLLIGEFGEERRDFIKIEEVPKSLKQAILAAEDDRFYQHYGVDYIGVLRAIYSNFKAGGAHQGASTITMQVARNFFLTKEKTLTRKFSEALLAFKIEHSLEKDQILELYINQIYLGQRSYGFSSAAQSYFGKQLTDINLAEAAMLAGLPKAPSRFNPIVNL”, the “soluble on expression in E. coli” value was “not soluble”.

In the case of “SDPATCPIIPGCETTIEISKGRTGLGLSIVGGSDTLLGAIIIHEVYEEGAACKDGRLWAGDQILEVNGIDLRKATHDEAINVLRQTPQRVRLTLYRDEAPYKEEEVCDTLTIELQKKPGKGLGLSIVGKRNDTGVFVSDIVKGGIADADGRLMQGDQILMVNGEDVRNATQEAVAALLKCSLGTVTLEVGRIKAGPFHSERRPSQSSQVSEGSLSSFTFPLSGSSTSESLESSSKKNALASEIQGLRTVEMKKGPTDSLGISIAGGVGSPLGDVPIFIAMMHPTGVAAQTQKLRVGDRIVTICGTSTEGMTHTQAVNLLKNASGSIEMQVVAGGDVSVVTGHQQEPASSSLSFTGLTSSSIFQDDLGPPQCKSITLERGPDGLGFSIVGGYGSPHGDLPIYVKTVFAKGAASEDGRLKRGDQIIAVNGQSLEGVTHEEAVAILKRTKGTVTLMVLS”, the “soluble on expression in E. coli” value was “soluble”.

With “MELGLAGKTALVAASSQGLGKAIARALVLEGTNVMITSRNEEKLHEVAEELNSLHKGRVAYTRTDVTNADDIRQLVAKTVETFGTIDLLVNNAGGPPAGTFETVSDEDWQYAFELNLLSYIRLIREALPYLKKKGGKIVNIASSSIKEPIPGLILSNTFRTGIVGLTKTLAVELAPDGILINTVAPGRIATERVAFLDKVNAEKLGITKEEMEARMKSAIPLGRYGTPEEFANVVVFLLSEANSYVTGQALIVDGGMVKAI” the “soluble on expression in E. coli” value was “soluble”.

In the case of “MCPVENKWLKVGQKGAGPGARSSHAMTVVGNKVYCFGGELKPTIHIDNDLYVFDLETQEWSIAPATGEAPFPCFGVSMVTIGSTIYVYGGRDDKRRYNGLHSYDTETNEWKLLAPVEEGLPGRSYHSMAGDDRKVYVFGGVTAKGRVNTLHAYDVVDQKWVEYPAAGEACKGRGAPGLVVVEGRIWVLFGFDGNELGDIHCFDLASEQWKAVETTGDVPAARSVFPAVSYGKYIVIYGGEEEPHELMHMGAGKMSGEVYQLDTETLVWERIVCGNEEEKPSQRGWCAFTKAVKDGEEGLLVHGGNSPTNERLDDLVFWGFSHLNVN”, the “soluble on expression in E. coli” value was “soluble”.

In the case of “MTLTSDDLRQIAALTLAHYDDNAVSFEVGTRDHDVSQNIAALLRHIQGDPPYAILDFGCGPGRDLKTFAALGHAAVGLDGAAHFVAMAHQATGCEVWQQDFLRLALPAGRFDGIFANASLFHVPTQELPRVLGELRDTLKPGGVLFCSNPRGGNEEGWSRGRYGVWHDWESWRALLEAAGFQALEHYYRPAGLPREQQQWLASVWRRLEHHHHHH”, the “soluble on expression in E. coli” value was “soluble”.

In the case of “MLASFLKLKTYCEQEGFKGWDPYDGLNSKVFRALPLLKQSALCRLIVIQGFKRSPINLRRLALVPKEYNAKGIGLFLQGYCNLYRLVERNPQLTKELGSREELLEQVKKLADLLLELRSPGDYSGACWGYNFDWQARRLFLFPKYTPTVVATNFCATALMEAYEVTRQQEYLDVALSAAQFVIKDLHRTAYRDGFLFSYSPLDGNDTVFNASLLGARLLSYCYHYTKDEAYRTLARQTISACCAAQAEDGSWVYGMLPVQSWIDSFHTGYNLDALIAYQELTGDISFAENIERGLSYYLEHFFEADGMPKYYHDRTYPIDIHCPGQLFVSLARLHRYDEHRELVDRVMAWTISSMQDKKGYFYYQMKPGLSSKIPYMRWSNAFMFCAMSYYLINYKEISGGDFSNDQ”, the “soluble on expression in E. coli” value was “not soluble”.

With “MASVHGITVKNAQGEDTPLSNYQGKVLIIVNVASQCGLTNSNYNQFKELLDVYKKDGLEVLAFPCNQFGGQEPSCEIDIAAFVADKFKFEPTLFQKIDVNGDNTAPLYKFLKQEKGGFLVDAIKWNFTKFLVGRDGHVIKRFSPTTEPKDMKKDIEAALQAKL” the “soluble on expression in E. coli” value was “not soluble”.

For “GSGTGAGEGHEGYVTRKHEWDSTTKKASNRSWDKVYMAAKAGRISFYKDQKGYKSNPELTFRGEPSYDLQNAAIEIASDYTKKKHVLRVKLANGALFLLQAHDDTEMSQWVTSLKAQSDSTA”, the “soluble on expression in E. coli” value was “soluble”.

In the case of “MGSDKIHHHHHHVEMPGTTEPLGKMVKVEGKKDEHKGDFFLTTVQIARANLATMIYSHFNSFTSIYSEQEMTGGLNDAQFNRVNQFYMETAQNTAIYQAFKLANKPYELKYEGVYVLDIAKNSTFKNKLELADTITAVNGQQFTSSADMIAYVSKQKVGDSVTIEYTRIDGTKHKSTGKYIKIANGKTGIGISLVDHTEVVTTPKVTVNAGSIGGPSAGMMFTLEIYSQLTGKDLRNGREIAGTGTIEHDGSIGQIGGVDKKVATASKEGAKVFLVPDSGTKKESSNNYLGAKTAAKKLKTKMKIVPVKTIQDALDYLEK”, the “soluble on expression in E. coli” value was “not soluble”.

For “SYSSAFAQAASSSLATSSAISRAFASVSSASAASSLAYNIGLSAARSLGIASDTALAGALAQAVGGVGAGASASAYANAIARAAGQFLATQGVLNAVNASSLGSALANALSDSAANSAVSGNYLGVSQN”, the “soluble on expression in E. coli” value was “soluble”.

In the case of “MHVTRNVGKSQKLHHVSLKQVLSYLEPHEQEDTKPVTSTKNKGFLLFNSHQNTLNTHMHGAMNSPCIDFVMFSRGQHDEDNMSRRPPWKRERSMSTQHHHLNLSPNEDEELANCLVLLSNSGDAHGGDQHKQHGHGKGKTVKKQKTAQVFQCKACKKVFTSHQALGGHRASHKKVKGCFASQDKEEEEEEEYKEDDDDNDEDEDEEEDEEDKSTAHIARKRSNAHECTICHRVFSSGQALGGHKRCHWLTPSNYLRMTSLHDHHHSVGRPQPLDQPSLDLNLACQEYSVDPTAMSVGMIERDGGGNNHNATSSSWLKLASGDWS”, the “soluble on expression in E. coli” value was “not soluble”.

In the case of “GPLGSGDVQVTEDAVRRYLTRKPMTTKDLLKKFQTKKTGLSSEQTVNVLAQILKRLNPERKMINDKMHFSLKE”, the “soluble on expression in E. coli” value was “soluble”.

In the case of “MAISVFDMFKIGIGPSSSHTVGPMRAGALFVTELRNQNRLHSVERIEVRLYGSLSATGIGHGSDRATVMGLMGEWPDQIDPSQVNQRIDALRADNQLMLAGEQAITFVWERDMCLLDESLPYHPNGMTLCAYGKTGEVHEQTYYSVGGGFVIDAEQAASGV”, the “soluble on expression in E. coli” value was “not soluble”.

For “MSLYSVISKILNFILVKMSKSLYVIGKDNIPKDSKYVVTCTHESYNEVIMLGMALYPNQIHYMAKKELFKNKWIGKFLTSLNAFPVDRENPGPSTLKRPINLLKDNKTVGIFPTGSRTSQEGAPLKRGASTIAMLSKSPILPVAYVGPTKIHGLLTGQAYINIGKPIDINDLPKDLKRNERIDYITKEIETRTAKLQQELHEIVKSEGHHHHHH”, the “soluble on expression in E. coli” value was “soluble”.

In the case of “SLSKKSVQTLEDIARLANVSRSTVSRALNNSPLISKQTRERIQAIAREHNFCLNVSGRNLRLRSSRTIAFVAPMCFPPVASAEHLFGLEMLGAIWSGLHELNYDCLIVHSASQDTDWVHRYLHSGRVDGFILMESSFKQTQIEALVQMKVPFIVWGMPVSPFNYCSVTGDNVAGGRLATEYLIRTGRQRIAFLGGLKGTLTVENRFKGYEQALQLAGRALDPALIVYGDYTYASGAAGMQRLLERAPDLDAVFVNSDLMAIAAINVIQESGRSVPADIAVVGYDDLSIAGYATLPLTTIRQNIPLAGKLLAQNLIQHIETGLVTNVTVPVELVIRKSEG”, the “soluble on expression in E. coli” value was “not soluble”.
